Laboratory results reported in patent US20210284747A1 (CAPELLA BIOSCIENCE, published 2021).
Changes are numbered by the printed parent chain.

T1: Human LIGHT-32L, on II23 cells (human, UniProt O43557 1-240)
T1 construct: also called II23-LIGHT 32L
T1 chain: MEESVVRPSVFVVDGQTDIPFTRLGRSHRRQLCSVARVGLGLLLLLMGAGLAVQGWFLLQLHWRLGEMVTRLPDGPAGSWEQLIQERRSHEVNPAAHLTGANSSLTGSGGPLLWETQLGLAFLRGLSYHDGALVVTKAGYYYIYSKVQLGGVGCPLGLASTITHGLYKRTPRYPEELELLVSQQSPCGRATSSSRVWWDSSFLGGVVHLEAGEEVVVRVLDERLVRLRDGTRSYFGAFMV

B1: 3B04_var8 (antibody, V domains shown)
VH: QVQLVQSGAEVKKPGASVKVSCKASGYTFTDYEMHWVRQAPGQGLEWMGEIDPETGDTAYAQKFQGRVTLTADKSTSTAYMELSSLRSEDTAVYYCSRETDYFFDYWGQGTLVTVSS
VL: DIQMTQSPSSLSASVGDRVTITCGASENIYGALNWYQRKQGKAPKLLIYGATNLADGVPSRFSGSGSGRDYTLTISSLQPEDFATYYCQNVLTTPWTFGQGTKLEIKR
B2: 3B04_var1 (antibody, V domains shown)
VH: B1 VH with M48I, A61S, Q65K, V68A, L83F
VL: B1 VL with K45Q, P59S
B3: 3B04_var2 (antibody, V domains shown)
VH: B1 VH with M48I, A61S, L83F
VL: B1 VL with K45Q, P59S
B4: 3B04_var4 (antibody, V domains shown)
VH: B1 VH
VL: B1 VL with K45Q, P59S
B5: 3B04_var5 (antibody, V domains shown)
VH: B1 VH with M48I, A61S, Q65K, V68A, L83F
VL: B1 VL
B6: 3B04_var6 (antibody, V domains shown)
VH: B1 VH with M48I, A61S, L83F
VL: B1 VL
B7: 3B04_var9 (antibody, V domains shown)
VH: B1 VH with M48I, A61S, Q65K, V68A, L83F
VL: B1 VL with R38Q, Q40P
B8: 3B04_var10 (antibody, V domains shown)
VH: B1 VH with M48I, A61S, L83F
VL: B1 VL with R38Q, Q40P
B9: 3B04_var12 (antibody, V domains shown)
VH: B1 VH
VL: B1 VL with R38Q, Q40P
B10: 3D12_var1 (antibody, V domains shown)
VH: B1 VH with G26D, Y32S, M34I, M48I, D57G, A61N, Q65K, V68A
VL: B1 VL with K45Q, P59S, F83V, T93S
B11: 3D12_var2 (antibody, V domains shown)
VH: B1 VH with G26D, Y32S, M34I, M48I, D57G, A61N
VL: B1 VL with K45Q, P59S, F83V, T93S
B12: 3D12_var3 (antibody, V domains shown)
VH: B1 VH with G26D, Y32S, M34I, D57G
VL: B1 VL with K45Q, P59S, F83V, T93S
B13: 3D12_var5 (antibody, V domains shown)
VH: B1 VH with G26D, Y32S, M34I, M48I, D57G, A61N, Q65K, V68A
VL: B1 VL with F83V, T93S
B14: 3D12_var6 (antibody, V domains shown)
VH: B1 VH with G26D, Y32S, M34I, M48I, D57G, A61N
VL: B1 VL with F83V, T93S
B15: 3D12_var7 (antibody, V domains shown)
VH: B1 VH with G26D, Y32S, M34I, D57G
VL: B1 VL with F83V, T93S
B16: 3D12_var9 (antibody, V domains shown)
VH: B1 VH with G26D, Y32S, M34I, M48I, D57G, A61N, Q65K, V68A
VL: B1 VL with R38Q, Q40P, F83V, T93S
B17: 3D12_var10 (antibody, V domains shown)
VH: B1 VH with G26D, Y32S, M34I, M48I, D57G, A61N
VL: B1 VL with R38Q, Q40P, F83V, T93S
B18: 3D12_var11 (antibody, V domains shown)
VH: B1 VH with G26D, Y32S, M34I, D57G
VL: B1 VL with R38Q, Q40P, F83V, T93S
B19: 3E09 chimeric IgG4 mAb (antibody, V domains shown)
VH: EVQLVESGGGLVKPGGSLKLSCEASGFTFSDYYMYWVRQTPEKRLEWVAAIGDGGIYTYYADTVKGRFTISRDNAKNILYLQMSSLKSNDTAMYYCARGTGDGFAYWGQGTLVTVS
VL: DIVLTQSPASLAVSLGQRATISCRASESVDSYGNSFMHWYQQKPGQPPKLLIYLASNLESGVPARFSGSGSRTDFTLTIDPVEADDAATYYCQQNNEDPYTFGGGTKLEIK
notes: Chimeric human IgG4 (S-to-P, L-to-E) with human CL, as m1; also called Parental 3E09

Key:
[1] = target: LIGHT without residues 81-84, stably expressed on EL4 cells (EL4-NC-LIGHT); assay: cell-based or functional assay
[2] = target: T1, Human LIGHT-32L, on II23 cells; assay: flow cytometry on II23-LIGHT 32L cells, 4 ug mAb in 100 uL, goat anti-human Fc gamma-PE; signal as % of the commercial anti-LIGHT-PE
Protocol: The cells were suspended at 1×10⁷ cells/ml and 100 uL aliquots were placed into wells of a 96-well plate, the cells spun down and washed in FACS buffer at 1800 rpm for 2 min. The cells were blocked with 1:100 dilution of anti-CD16/CD32 (eBioscience, San Diego, USA) in FACS buffer for 20 min at room temperature and then washed 1× in FACS buffer at 1800 rpm for 2 min. The cells were then resuspended in 100 uL FACS buffer+4 ug anti-membrane LIGHT mAbs or anti-LIGHT-PE (eBioscience, lot: E01621-1632) for 30 min in the dark at room temperature, followed by washing 1× in FACS buffer at 1800 rpm for 2 min and then resuspended in 100 uL FACS buffer plus 1:100 goat anti-human Fcγ-PE secondary antibody or no secondary antibody at 4° C. in the dark for 30 min. The cells were again washed 1× in FACS buffer at 1800 rpm for 2 min and fixed in 200 uL 2% paraformaldehyde overnight at 4° C. and read on a flow cytometer.

[3] = target: Full length LIGHT S194A on HEK293FF cells (Homo sapiens (Human), UniProt O43557 1-240); assay: flow cytometry, HEK293FF, mAb at EC50
Protocol: (§1) The day of transfection the cells were seeded in a 24-well plate at 0.6×10⁶ cells/well. Lipofectamine 2000 (ThermoFisher scientific), 3 ul, was mixed with 50 μl OptiMEM medium (GIBCO) and then added to 50 μl Opti-MEM medium containing 3 ug plasmid DNA and incubated for 20 min at RT to form DNA-Lipofectamine 2000 complexes which were then added to the HEK293FF cells and incubated at 37° C., 5% CO₂ for 24 hours. For each construct, in duplicate, 0.60×10⁶ cells/well were used in a 96 well round bottom plate. Cells were centrifuged for 3 minutes at 300×g at 4° C., the supernatant discarded and the cells washed with 150 μl FACS buffer (0.5% FBS in phosphate buffered saline). This process was repeated 3 times. […] The wells were washed 3 times as above and 50 μl/well of goat anti-human IgG FITC (1:1500 dilution in FACS buffer, SIGMA F9512-2ML) or goat anti-mouse APC (1/500 dilution in FACS buffer, BDBioscience 550826), as appropriate, was added to the wells and incubated for 30 min at 4° C. protected from the light, with shaking. The cells were then washed as above, resuspended in 100 μl of FACS buffer and binding of the antibodies to the constructs was measured using flow cytometry and a total of 10,000 cells were acquired for each sample. Controls of buffer and secondary antibody only as well as HEK293FF non transfected cells were also used.

[4] = target: Full length LIGHT W197A on HEK293FF cells (Homo sapiens (Human), UniProt O43557 1-240); assay: flow cytometry, HEK293FF, mAb at EC50
Protocol: as §1

[5] = target: Full length LIGHT G188A on HEK293FF cells (Homo sapiens (Human), UniProt O43557 1-240); assay: flow cytometry, HEK293FF, mAb at EC50
Protocol: as §1

[6] = target: Full length LIGHT V196A on HEK293FF cells (Homo sapiens (Human), UniProt O43557 1-240); assay: flow cytometry, HEK293FF, mAb at EC50
Protocol: as §1

[7] = target: Full length LIGHT R189A on HEK293FF cells (Homo sapiens (Human), UniProt O43557 1-240); assay: flow cytometry, HEK293FF, mAb at EC50
Protocol: as §1

[8] = target: Full length LIGHT T191A on HEK293FF cells (Homo sapiens (Human), UniProt O43557 1-240); assay: flow cytometry, HEK293FF, mAb at EC50
Protocol: as §1

[9] = target: Full length LIGHT A190S on HEK293FF cells (Homo sapiens (Human), UniProt O43557 1-240); assay: flow cytometry, HEK293FF, mAb at EC50
Protocol: as §1

[10] = target: Full length LIGHT W198A on HEK293FF cells (Homo sapiens (Human), UniProt O43557 1-240); assay: flow cytometry, HEK293FF, mAb at EC50
Protocol: as §1

[11] = target: Full length LIGHT S192A on HEK293FF cells (Homo sapiens (Human), UniProt O43557 1-240); assay: flow cytometry, HEK293FF, mAb at EC50
Protocol: as §1

[12] = target: Full length LIGHT S193A on HEK293FF cells (Homo sapiens (Human), UniProt O43557 1-240); assay: flow cytometry, HEK293FF, mAb at EC50
Protocol: as §1

[13] = target: Full length LIGHT R195A on HEK293FF cells (Homo sapiens (Human), UniProt O43557 1-240); assay: flow cytometry, HEK293FF, mAb at EC50
Protocol: as §1

[14] = target: T2, Human LIGHT stably expressed on EL4 cells (EL4-LIGHT) (human, UniProt O43557 1-240); assay: flow cytometry, EL4-LIGHT cells
T2 construct: whole, on cells; also called membrane LIGHT
Protocol: The EC50 of the 7 mAbs were calculated from binding to EL4-LIGHT cells (FIG. 1). […] Non-linear regression analysis was performed to determine the functional binding affinity measurement or EC50 for each mAb. A range of functional affinities was observed.

[15] = target: T2, Human LIGHT stably expressed on EL4 …; assay: flow cytometry, against F19 and F23

Chain of Full length LIGHT R195A on HEK293FF cells (O43557 whole entry R195A): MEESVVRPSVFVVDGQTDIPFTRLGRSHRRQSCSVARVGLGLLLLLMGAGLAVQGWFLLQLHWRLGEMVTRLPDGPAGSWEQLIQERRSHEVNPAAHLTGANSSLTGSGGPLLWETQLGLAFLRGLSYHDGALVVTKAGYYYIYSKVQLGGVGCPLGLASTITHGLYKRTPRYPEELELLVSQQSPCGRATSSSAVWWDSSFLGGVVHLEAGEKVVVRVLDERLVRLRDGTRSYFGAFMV
Chain of Full length LIGHT S192A on HEK293FF cells (O43557 whole entry S192A): as the sequence (O43557 whole entry R195A) above, with S192A, A195R counted along it
Chain of Full length LIGHT W198A on HEK293FF cells (O43557 whole entry W198A): as the sequence (O43557 whole entry R195A) above, with A195R, W198A counted along it
Chain of Full length LIGHT V196A on HEK293FF cells (O43557 whole entry V196A): as the sequence (O43557 whole entry R195A) above, with A195R, V196A counted along it
T2 sequence (O43557 whole entry): as the sequence (O43557 whole entry R195A) above, with A195R counted along it
Chain of Full length LIGHT T191A on HEK293FF cells (O43557 whole entry T191A): as the sequence (O43557 whole entry R195A) above, with T191A, A195R counted along it
Chain of Full length LIGHT G188A on HEK293FF cells (O43557 whole entry G188A): as the sequence (O43557 whole entry R195A) above, with G188A, A195R counted along it
Chain of Full length LIGHT A190S on HEK293FF cells (O43557 whole entry A190S): as the sequence (O43557 whole entry R195A) above, with A190S, A195R counted along it
Chain of Full length LIGHT W197A on HEK293FF cells (O43557 whole entry W197A): as the sequence (O43557 whole entry R195A) above, with A195R, W197A counted along it
Chain of Full length LIGHT R189A on HEK293FF cells (O43557 whole entry R189A): as the sequence (O43557 whole entry R195A) above, with R189A, A195R counted along it
Chain of Full length LIGHT S194A on HEK293FF cells (O43557 whole entry S194A): as the sequence (O43557 whole entry R195A) above, with S194A, A195R counted along it

Row | Binder | IC50, inhibition of IL-8 secretion, HT-29 + EL4-NC-LIGHT cells [1] [nM] | other results
1 | B1 | 0.05 | 
2 | B2 | 0.05 | 
3 | B3 | 0.06 | 
4 | B4 | 0.04 | 
5 | B5 | 0.04 | 
6 | B6 | 0.08 | 
7 | B7 | 0.09 | 
8 | B8 | 0.04 | 
9 | B9 | 0.07 | 
10 | B10 | 0.33 | 
11 | B11 | 0.74 | 
12 | B12 | 0.53 | 
13 | B13 | 0.59 | 
14 | B14 | 0.47 | 
15 | B15 | 0.54 | 
16 | B16 | 0.71 | 
17 | B17 | 0.44 | 
18 | B18 | 0.55 | 
19 | B19 |  | binding result [2]: binds; % of WT binding [3]: 1%; % of WT binding [4]: 1%; % of WT binding [5]: 35%; % of WT binding [6]: 34%; % of WT binding [7]: 1%; % of WT binding [8]: 88%; % of WT binding [9]: 97%; % of WT binding [10]: 48%; % of WT binding [11]: 50%; % of WT binding [12]: 0%; % of WT binding [13]: 1%; EC50 [14]: 10.4 nM; binding ratio, mAb to LIGHT trimer [15]: 1 mAb per LIGHT trimer
